From patent publication US6572751B1, “Method and apparatus for continuous flow isoelectric focusing for purifying biological substances” (priority 1997, dated 2003)

Assay: Amylolytic activity of purified α-amylase
Settings: middle outflow after second contifocusing run

B1: α-amylase: enzyme purified from Bacillus subtilis strain A-200 culture supernatant (protein, UniProt P00691 42-659, looked up)
Alpha-amylase: LTAPSIKSGTILHAWNWSFNTLKHNMKDIHDAGYTAIQTSPINQVKEGNQGDKSMSNWYWLYQPTSYQIGNRYLGTEQEFKEMCAAAEEYGIKVIVDAVINHTTSDYAAISNEVKSIPNWTHGNTQIKNWSDRWDVTQNSLLGLYDWNTQNTQVQSYLKRFLDRALNDGADGFRFDAAKHIELPDDGSYGSQFWPNITNTSAEFQYGEILQDSASRDAAYANYMDVTASNYGHSIRSALKNRNLGVSNISHYASDVSADKLVTWVESHDTYANDDEESTWMSDDDIRLGWAVIASRSGSTPLFFSRPEGGGNGVRFPGKSQIGDRGSALFEDQAITAVNRFHNVMAGQPEELSNPNGNNQIFMNQRGSHGVVLANAGSSSVSINTATKLPDGRYDNKAGAGSFQVNDGKLTGTINARSVAVLYPDDIAKAPHVFLENYKTGVTHSFNDQLTITLRADANTTKAVYQINNGPETAFKDGDQFTIGKGDPFGKTYTIMLKGTNSDGVTRTEKYSFVKRDPASAKTIGYQNPNHWSQVNAYIYKHDGSRVIELTGSWPGKPMTKNADGIYTLTLPADTDTTNAKVIFNNGSAQVPGQNQPGFDYVLNGLYNDSGLSGSLPH
  amylolytic activity: 200 U/g
